Assay in all cases: purified protein
For data set [1], the system named is Nc1ccccc1C(=O)O. Format: biochemical, Physcomitrium patens. The following applies: 1 mM PR-PPi, 45 mM imidazole HCl pH 7.4, 30 °C, anthranilate 0-0.75 mM.
Data set [2] has as its system Nc1ccccc1C(=O)O. Format: biochemical, Juglans regia. The note with it: 1 mM PR-PPi, 45 mM imidazole HCl pH 7.4, 30 °C, anthranilate 0-0.75 mM.
The subject of data set [3] is T1, Nc1c(O)cccc1C(=O)O.
T1 construct: codon-optimized gene in pET28a, His-tagged, E. coli BL21 (DE3), Ni-NTA
Format: biochemical, Juglans regia. The note with it: 1 mM PR-PPi, 45 mM imidazole HCl pH 7.4, 30 °C, 3-HAA 0-0.5 mM.

The test system of data set [4] is T1, Nc1c(O)cccc1C(=O)O. Format: biochemical, Arabidopsis thaliana. The note with it: 1 mM PR-PPi, 45 mM imidazole HCl pH 7.4, 30 °C, 3-HAA 0-0.5 mM.
The subject of data set [5] is T2, Nc1ccccc1C(=O)O.
T2 construct: codon-optimized gene in pET28a, His-tagged, E. coli BL21 (DE3), Ni-NTA
Format: biochemical, Arabidopsis thaliana. The note with it: 1 mM PR-PPi, 45 mM imidazole HCl pH 7.4, 30 °C, anthranilate 0-0.75 mM.

Data set [6] concerns T1, Nc1c(O)cccc1C(=O)O. Format: biochemical, Selaginella moellendorffii. The note with it: 1 mM PR-PPi, 45 mM imidazole HCl pH 7.4, 30 °C, 3-HAA 0-0.5 mM.
Data set [7] has as its system T2, Nc1ccccc1C(=O)O. Format: biochemical, Selaginella moellendorffii. The note with it: 1 mM PR-PPi, 45 mM imidazole HCl pH 7.4, 30 °C, anthranilate 0-0.75 mM.

A word on the Km: it is the concentration of substrate that gives half-maximal velocity. A word on the kcat: it is the number of substrate molecules converted per active site and unit of time at saturation. Usually kcat/Km stands for the turnover number divided by the Michaelis constant.

As for PpPAT1 (Physcomitrium patens), in the data set with Nc1ccccc1C(=O)O [1], the Km came to 31.8 ± 4.4 µM, the kcat is 0.0567 ± 0.00167 s⁻¹ and the kcat/Km is 1790 M⁻¹ s⁻¹.
Turning to JrPAT1 (Juglans regia), in the data set with Nc1ccccc1C(=O)O [2], the Km was 38.7 ± 3.5 µM, the kcat was determined as 0.055 ± 0.00167 s⁻¹ and the kcat/Km was found to be 1420 M⁻¹ s⁻¹. Moreover, in the data set with Nc1c(O)cccc1C(=O)O [3], the Km stood at 28.23 ± 4.2 µM, the kcat worked out at 0.0483 ± 0.00167 s⁻¹ and the kcat/Km was 1690 M⁻¹ s⁻¹.
AtPAT1 (Arabidopsis thaliana): in the data set on Nc1c(O)cccc1C(=O)O [4], the Km came out at 19.63 ± 2.3 µM, the kcat worked out at 0.0483 ± 0.00117 s⁻¹ and the kcat/Km worked out at 2470 M⁻¹ s⁻¹. In the data set with Nc1ccccc1C(=O)O [5], the Km was determined as 20.6 ± 2.0 µM, the kcat is 0.132 ± 0.00167 s⁻¹ and the kcat/Km came out at 6360 M⁻¹ s⁻¹.
Regarding SmPAT1 (Selaginella moellendorffii), in the data set with Nc1c(O)cccc1C(=O)O [6], the Km amounted to 22.66 ± 1.5 µM, the turnover number (kcat) worked out at 0.0533 ± 0.000833 s⁻¹ and the kcat/Km worked out at 2360 M⁻¹ s⁻¹. Further, in the data set with Nc1ccccc1C(=O)O [7], the Km turned out to be 189 ± 35 µM, the kcat is 0.085 ± 0.005 s⁻¹ and the kcat/Km was 450 M⁻¹ s⁻¹.
